PMC11711097 (Nature, 2024)
Positions count from the first letter of the chain named. In names and notes the source's numbering stands.

What was measured:
cross-linking = target: the molecule itself; assay: cross-linking
cryo-EM structure = target: the molecule itself; assay: cryo-EM structure
[1] = target: Full-length mouse NINJ1(K45Q) (mouse, UniProt O70131, K45Q); assay: SPR

B1: Endogenous NINJ1 of mouse bone marrow-derived macrophages (natural protein)
chain: MESGTEEYELNGDLRPGSPGSPDALPPRWGLRNRPINVNHYANKKSAAESMLDIALLMANASQLKAVVEQGNDFAFFVPLVVLISISLVLQIGVGVLLIFLVKYDLNNPAKHAKLDFLNNLATGLVFIIVVVNIFITAFGVQKPVMDVAPRQ
Question: For B1, which “stoichiometry N” value (cross-linking) is on record?
Answer: 2 subunits

B2: Full-length mouse NINJ1(K45Q) (natural protein)
chain: B1 chain with K45Q
Question: How did the “stoichiometry N” value (cryo-EM structure) turn out when B2 was run?
Answer: 4 subunits

B3: Nb538 (His-tagged, purified) (VHH)
VHH: EVQLVESGGGLVQPGGSLRLSCAASGFNVYSSSYYYVGWVRRAPGKGEELVARISPSYGYTYYADSVKGRFTISADTSKNTAYLQMNSLRAEDTAVYYCEVYIFGQYFESGQGTLVTVSS
Question: B3 was tested. Which Kd [1] did it give?
Answer: 24 nM
